In US20250387497A1, “MULTIVALENT MULTISPECIFIC CONJUGATES AND RELATED COMPOSITIONS AND METHODS OF USE” (Purdue Research Foundation, priority 2022, published 2025):
Where “and” joins values, the source holds several entries; their conditions need not be identical. Identical values can stand only once. Each block holds one binder with its values, some of them ahead of it.

Assays:
[1] = target: epidermal growth factor receptor (EGFR); assay: binding affinity, method not stated
[2] = target: Her2 (human epidermal growth factor receptor 2); assay: binding affinity, method not stated

Kd [1]: 459 µM
B1: peptide "E", binding motif for EGFR, … (peptide)
peptide: YHWYGYTPQNVI

Kd [2]: < 500 nM and 300 nM
B2: peptide "H", binding motif for Her2, … (peptide)
peptide: FCGDGFYACYMDV
